Results published in patent publication US20250049970A1, “DLL3 TARGETING PEPTIDES AND CONSTRUCTS THEREOF” (MARIANA ONCOLOGY INC., priority 2023, published 2025).
Bridges are numbered along the chain shown (N, C = ends).

T1: DLL3 (target ligand immobilized on a SA sensor chip via streptavidin capture) (Homo sapiens (Human), UniProt Q9NYJ7 27-492, limits assumed)
T1 sequence: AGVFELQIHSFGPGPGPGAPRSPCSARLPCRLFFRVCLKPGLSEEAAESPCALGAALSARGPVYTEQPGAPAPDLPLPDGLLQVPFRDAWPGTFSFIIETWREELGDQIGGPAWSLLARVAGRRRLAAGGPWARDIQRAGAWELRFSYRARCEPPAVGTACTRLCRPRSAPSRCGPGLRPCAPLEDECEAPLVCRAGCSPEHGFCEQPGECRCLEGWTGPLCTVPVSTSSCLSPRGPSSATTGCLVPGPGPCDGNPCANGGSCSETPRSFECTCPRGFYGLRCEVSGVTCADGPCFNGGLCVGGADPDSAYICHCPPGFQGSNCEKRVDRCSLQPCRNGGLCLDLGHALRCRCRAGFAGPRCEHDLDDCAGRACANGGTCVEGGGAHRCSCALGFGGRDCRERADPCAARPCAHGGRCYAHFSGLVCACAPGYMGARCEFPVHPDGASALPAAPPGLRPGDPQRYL

B1: SEQ ID NO 70 (peptide)
peptide: Ac-MWKICSDWQNCWP-NH2
modifications: disulfide 5-11
SMILES: CC[C@H](C)[C@H](NC(=O)[C@H](CCCCN)NC(=O)[C@H](Cc1c[nH]c2ccccc12)NC(=O)[C@H](CCSC)NC(C)=O)C(=O)N[C@H]1CSSC[C@@H](C(=O)N[C@@H](Cc2c[nH]c3ccccc23)C(=O)N2CCC[C@H]2C(N)=O)NC(=O)[C@H](CC(N)=O)NC(=O)[C@H](CCC(N)=O)NC(=O)[C@H](Cc2c[nH]c3ccccc23)NC(=O)[C@H](CC(=O)O)NC(=O)[C@H](CO)NC1=O
B2: SEQ ID NO 75 (peptide)
peptide: Ac-MWVLCEWHECWPG-NH2
modifications: disulfide 5-10
SMILES: CSCC[C@H](NC(C)=O)C(=O)N[C@@H](Cc1c[nH]c2ccccc12)C(=O)N[C@H](C(=O)N[C@@H](CC(C)C)C(=O)N[C@H]1CSSC[C@@H](C(=O)N[C@@H](Cc2c[nH]c3ccccc23)C(=O)N2CCC[C@H]2C(=O)NCC(N)=O)NC(=O)[C@H](CCC(=O)O)NC(=O)[C@H](Cc2c[nH]cn2)NC(=O)[C@H](Cc2c[nH]c3ccccc23)NC(=O)[C@H](CCC(=O)O)NC1=O)C(C)C
B3: SEQ ID NO 71 (peptide)
peptide: Ac-MWHICQEWATCWP-NH2
modifications: disulfide 5-11
SMILES: CC[C@H](C)[C@H](NC(=O)[C@H](Cc1c[nH]cn1)NC(=O)[C@H](Cc1c[nH]c2ccccc12)NC(=O)[C@H](CCSC)NC(C)=O)C(=O)N[C@H]1CSSC[C@@H](C(=O)N[C@@H](Cc2c[nH]c3ccccc23)C(=O)N2CCC[C@H]2C(N)=O)NC(=O)[C@H]([C@@H](C)O)NC(=O)[C@H](C)NC(=O)[C@H](Cc2c[nH]c3ccccc23)NC(=O)[C@H](CCC(=O)O)NC(=O)[C@H](CCC(N)=O)NC1=O
B4: SEQ ID NO 74 (peptide)
peptide: Ac-MWQLCEWNNCWPV-NH2
modifications: disulfide 5-10
SMILES: CSCC[C@H](NC(C)=O)C(=O)N[C@@H](Cc1c[nH]c2ccccc12)C(=O)N[C@@H](CCC(N)=O)C(=O)N[C@@H](CC(C)C)C(=O)N[C@H]1CSSC[C@@H](C(=O)N[C@@H](Cc2c[nH]c3ccccc23)C(=O)N2CCC[C@H]2C(=O)N[C@H](C(N)=O)C(C)C)NC(=O)[C@H](CC(N)=O)NC(=O)[C@H](CC(N)=O)NC(=O)[C@H](Cc2c[nH]c3ccccc23)NC(=O)[C@H](CCC(=O)O)NC1=O
B5: SEQ ID NO 72 (peptide)
peptide: Ac-MWTLCDTWDTCFP-NH2
modifications: disulfide 5-11
SMILES: CSCC[C@H](NC(C)=O)C(=O)N[C@@H](Cc1c[nH]c2ccccc12)C(=O)N[C@H](C(=O)N[C@@H](CC(C)C)C(=O)N[C@H]1CSSC[C@@H](C(=O)N[C@@H](Cc2ccccc2)C(=O)N2CCC[C@H]2C(N)=O)NC(=O)[C@H]([C@@H](C)O)NC(=O)[C@H](CC(=O)O)NC(=O)[C@H](Cc2c[nH]c3ccccc23)NC(=O)[C@H]([C@@H](C)O)NC(=O)[C@H](CC(=O)O)NC1=O)[C@@H](C)O
B6: SEQ ID NO 87 (peptide)
peptide: Ac-MWAICNNWHDCWP-NH2
modifications: disulfide 5-11
SMILES: CC[C@H](C)[C@H](NC(=O)[C@H](C)NC(=O)[C@H](Cc1c[nH]c2ccccc12)NC(=O)[C@H](CCSC)NC(C)=O)C(=O)N[C@H]1CSSC[C@@H](C(=O)N[C@@H](Cc2c[nH]c3ccccc23)C(=O)N2CCC[C@H]2C(N)=O)NC(=O)[C@H](CC(=O)O)NC(=O)[C@H](Cc2c[nH]cn2)NC(=O)[C@H](Cc2c[nH]c3ccccc23)NC(=O)[C@H](CC(N)=O)NC(=O)[C@H](CC(N)=O)NC1=O
B7: SEQ ID NO 88 (peptide)
peptide: Ac-MWTACNNWHDCWP-NH2
modifications: disulfide 5-11
SMILES: CSCC[C@H](NC(C)=O)C(=O)N[C@@H](Cc1c[nH]c2ccccc12)C(=O)N[C@H](C(=O)N[C@@H](C)C(=O)N[C@H]1CSSC[C@@H](C(=O)N[C@@H](Cc2c[nH]c3ccccc23)C(=O)N2CCC[C@H]2C(N)=O)NC(=O)[C@H](CC(=O)O)NC(=O)[C@H](Cc2c[nH]cn2)NC(=O)[C@H](Cc2c[nH]c3ccccc23)NC(=O)[C@H](CC(N)=O)NC(=O)[C@H](CC(N)=O)NC1=O)[C@@H](C)O
B8: SEQ ID NO 89 (peptide)
peptide: Ac-MWTICANWHDCWP-NH2
modifications: disulfide 5-11
SMILES: CC[C@H](C)[C@H](NC(=O)[C@@H](NC(=O)[C@H](Cc1c[nH]c2ccccc12)NC(=O)[C@H](CCSC)NC(C)=O)[C@@H](C)O)C(=O)N[C@H]1CSSC[C@@H](C(=O)N[C@@H](Cc2c[nH]c3ccccc23)C(=O)N2CCC[C@H]2C(N)=O)NC(=O)[C@H](CC(=O)O)NC(=O)[C@H](Cc2c[nH]cn2)NC(=O)[C@H](Cc2c[nH]c3ccccc23)NC(=O)[C@H](CC(N)=O)NC(=O)[C@H](C)NC1=O
B9: SEQ ID NO 68 (peptide)
peptide: Ac-WTICADWAQCWP-NH2
modifications: disulfide 4-10
SMILES: CC[C@H](C)[C@H](NC(=O)[C@@H](NC(=O)[C@H](Cc1c[nH]c2ccccc12)NC(C)=O)[C@@H](C)O)C(=O)N[C@H]1CSSC[C@@H](C(=O)N[C@@H](Cc2c[nH]c3ccccc23)C(=O)N2CCC[C@H]2C(N)=O)NC(=O)[C@H](CCC(N)=O)NC(=O)[C@H](C)NC(=O)[C@H](Cc2c[nH]c3ccccc23)NC(=O)[C@H](CC(=O)O)NC(=O)[C@H](C)NC1=O
B10: SEQ ID NO 73 (peptide)
peptide: Ac-MWTLCDNWQTCWP-NH2
modifications: disulfide 5-11
SMILES: CSCC[C@H](NC(C)=O)C(=O)N[C@@H](Cc1c[nH]c2ccccc12)C(=O)N[C@H](C(=O)N[C@@H](CC(C)C)C(=O)N[C@H]1CSSC[C@@H](C(=O)N[C@@H](Cc2c[nH]c3ccccc23)C(=O)N2CCC[C@H]2C(N)=O)NC(=O)[C@H]([C@@H](C)O)NC(=O)[C@H](CCC(N)=O)NC(=O)[C@H](Cc2c[nH]c3ccccc23)NC(=O)[C@H](CC(N)=O)NC(=O)[C@H](CC(=O)O)NC1=O)[C@@H](C)O

These binders were tested against T1, DLL3 (target ligand immobilized on a SA …) (assay: SPR, Biacore S200, target ligand on SA chip, 25 C, 1:1 fit).
Description: Target ligand was immobilized on a SA sensor chip via streptavidin capture. A reference surface was set up for nonspecific binding and refractive index changes. For analysis of the kinetics of interactions, varying concentrations of peptides were injected at a flow rate of 50 μL/minute using running buffer containing 20 mM phosphate buffer with 2.7 mM KCl, 137 mM NaCl and 0.05% Surfactant P20. Sensorgram curves were fitted with 1:1 binding model, and affinity and kinetic parameters were obtained using either Biacore S200 evaluation software 1.1.1 or Biacore Insight evaluation 4.0.

Kd [nM] | Binder
340 | B1
57 | B2
47 | B3
110 | B4
24 | B5
53 | B6
86 | B7
8.1 | B8
6.1 | B9
42 | B10
